We go through one substance from PMC8918354.

As usually defined, the stoichiometry N is a count of units in the complex or per binding partner.

The target in the assay is iron superoxide dismutase SodB from Acinetobacter sp. Ver3 (Acinetobacter sp. Ver3). In words: crystal structure; space group C222(1), one molecule per asymmetric unit, dimer formed by crystallographic symmetry; 1.34 Å; crystals grown at 20 °C from 10 mg/ml protein with 1 mM FMN in the mother liquor.

As for “iron superoxide dismutase SodB from Acinetobacter sp. Ver3 (enzyme)”, the stoichiometry N was 2.
